{
  "source": "patent US20180073026",
  "about": "“NOVEL EXPRESSION REGULATING RNA-MOLECULES AND USES THEREOF” (Universität Wien, published 2018)",
  "target": "RNA polymerase (His6 RNAP; holoenzyme) (Escherichia coli, UniProt P0A7Z4;P0A8V2;P0A8T7;P0A800;P00579 …)",
  "assay": "in vitro transcription, reduction of rrnB termination vs Rev #5713, purified RNAP only",
  "details": "tags: His6 (Nudler Lab) or holoenzyme from Affymetrix; chain copies: 2,1,1,1,1",
  "protocol": "Transcription reactions were performed in solution. Wild-type E. coli His6 RNAP (Evgeny Nudler Lab) and wild-type E. coli RNAP Holoenzyme (Affymetrix) were used in the assays. […] Then AUC RNA primer (Dharmacon) was added up to 10 μM together with GTP (25 μM) and ATP (25 μM) followed by incubation at 37° C. for 5 minutes. Next, [α-32P]-CTP (800 Ci/mmol, 2 μl, Hartmann Analytic) was added for another 2 min. To minimize RNA degradation 10 U of RNasin® Ribonuclease Inhibitor (Promega) were added to the reaction. For the reactions with Rho and NusG, the purified transcription factors were added in a concentration of up to 0.5 μM to the transcriptional mixtures where indicated, followed by additional incubation at 37° C. for 5 minutes. Chasing reaction was performed with all four NTPs added to a final concentration of 10-50 μM. To prevent re-initiation, rifampicin (Sigma) was added concurrently at this step to a final concentration of 10 μM. At the indicated time points, an aliquot of chase reaction was quenched with 3× Stop Solution, containing 100 mM EDTA, 8M UREA, 0.025% xylenthianol and 0.025% bromophenol blue. The products were separated by 6% denaturing TBE-PAGE (8M urea). […]",
  "data": [
    {"binder": "GACAACAUGAGAACAGUUCAGCAGCACUA (ssRNA)", "note": "[RAP #5713]", "values": [
      {"measurement": "activity", "value": "> 2", "unit": "fold"}
    ]}
  ]
}
